These are literature values, as cited in article PMC7411019.

For this data set, the target named is cTnI-binding peptide.

Sequence of Cardiac troponin I 114-144 (P19429 114-144): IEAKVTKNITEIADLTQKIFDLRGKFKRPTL

Consider “Cardiac troponin I 114-144 (from UniProt P19429)”, for which the Kd was 0.27 nM.

In general, Kd refers to a measure of binding affinity in units of concentration.
